From patent publication US20230272054A1, “COMBINATION THERAPIES FOR THE TREATMENT AND PREVENTION OF BIOFILMS” (priority 2020, published 2023)
“Also recorded” adds a separate entry of the source.

Assays:
[1] = test system: S. aureus biofilms; assay: Disruption of 24 h S. aureus biofilms in vitro (CLSM, COMSTAT average thickness); conditions: 24 h biofilms, 16 h; non-bactericidal dose
[2] = test system: UPEC biofilms; conditions: 24 h UPEC biofilms, rHMGB1 200 nM, 16 h
[3] = test system: TNF-α; assay: Mouse model of endotoxemia, serum TNF-α by ELISA; format: in vivo, C57BL/6 mice; conditions: i.p. 0.2 nmol endotoxin-free rHMGB1 or LPS 5 mg/kg; 24 h
Protocol: Since excess HMGB1 can mediate dysregulated host response to infection associated with septic shock, the ability of rHMGB1 (0.2 nmol; the concentration used to treat in vivo biofilms) to induce septic shock was evaluated in mice. Mice were injected i.p. with either 0.2 nmol endotoxin-free rHMGB1, lipopolysaccharide (LPS; 5 mg/kg) or both, then monitored for signs of septic shock for 24 hours.
Mouse model of endotoxemia: C57BL/6 mice were injected i.p. with 5 mg/kg of E. coli lipopolysaccharide (Sigma), or 0.2 nmol rHMGB1 alone or in combination with LPS. Animals were euthanized 24 h later, serum was collected, and TNF-α was quantified by ELISA (ThermoFisher).

[4] = test system: Human neutrophils; assay: NET formation by neutrophils incubated with HMGB1 isoforms (CLSM); format: cell-based; conditions: 200 nM protein, 3.5 h
Protocol: Neutrophils were fixed, then labeled as described above to visualize the NETs.
Visualization of NETs structure upon incubation of neutrophils with various isoforms of HMGB1: Human neutrophils were isolated from blood using the EASYSEP™ isolation kit (Stemcell Technologies Inc.). […] NETs were fixed in formalin, blocked with 10% normal goat serum (Life Technologies), and labeled with α-dsDNA monoclonal antibody (1 μg), and α-neutrophil elastase polyclonal antibody (1 μg) or naive rabbit and mouse isotype controls (1 μg) in 200 μl PBS for 16 h hours at 4° C. NETs were washed with PBS and incubated for 1 h with 1:200 dilution goat α-rabbit IgG conjugated to ALEXAFLUOR® 594, goat α-mouse IgG conjugated to ALEXAFLUOR® 488, and 1:500 dilution wheat germ agglutinin conjugated to ALEXAFLUOR® 350 (PMN membrane stain). NETs were imaged with a Zeiss LSM 800 confocal microscope (Carl Zeiss Inc.) and rendered with Zeiss Zen software.

[5] = test system: biofilms formed by UPEC, B. cenocepacia, NTHI, Enterobacter spp, S. aureus, K. pneumoniae, A. baumanii, P. aeruginosa, E. faecium; assay: Disruption of 24 h bacterial biofilms in vitro by HMGB1 isoforms (LIVE/DEAD stain, CLSM, COMSTAT average thickness); conditions: 24 h biofilms of nine pathogens; 200 nM protein, 16 h (S. aureus 800 nM rHMGB1; E. faecium 800 nM, 1 h)
[6] = test system: E. faecium biofilms; assay: Disruption of 24 h E. faecium biofilms in vitro (CLSM, COMSTAT average thickness); conditions: 24 h biofilms, 1 h incubation; non-bactericidal dose
[7] = test system: UPEC biofilms; assay: Disruption of 24 h UPEC biofilms in vitro (CLSM, COMSTAT average thickness); conditions: 24 h UPEC biofilms, indicated concentrations of rHMGB1
[8] = test system: pro-inflammatory and anti-inflammatory cytokines; assay: Quantitation of cytokines in middle ear fluids (cytometric bead array); format: in vivo, chinchilla (Chinchilla lanigera); conditions: six days after NTHI challenge, one day after completion of treatment
Protocol: Quantitation of cytokines in middle ear fluids: To quantitate cytokines in middle ear fluids (MEF), a BD™ Cytometric Bead Array was performed with fluids collected at the time of animal sacrifice. With BD™ human-specific Flex Sets, each MEF was individually examined for relative quantity of IL-1β, IL-4, IL-6, IL-8, IL-10, IL12-p70, IL-13, IL-17A, TNF or IFNγ according to manufacturer's instructions. MEFs from each animal were assayed individually. Data were captured on a BD ACCURI™ C6 cytometer (BD Biosciences) and analyzed with FlowJo software (FlowJo, LLC). The concentration of cytokines in each MEF was determined using a standard curve and calculated using GraphPad Prism software.

[9] = test system: B. cenocepacia; assay: Murine model of lung infection by B. cenocepacia, bacterial burden; conditions: 0.2 nmol i.t. at 24 hpi; 72 hpi; α-EF-Tu labeling
Protocol: Intratracheal challenge of the murine lung with B. cenocepacia and treatment with HMGB1 isoforms: B. cenocepacia strain K56-2, was cultured in LB broth (Difco, Md.) at 37° C. overnight at 200 rpm. Bacterial concentration was adjusted before each experiment based on OD at 600 nm. C57BL/6 mice were infected intratracheally (i.t.) with 10^7 colony forming units (CFU) of B. cenocepacia. […] Animals were euthanized 24 or 48 hpi, and bronchoalveolar lavage (BAL) was collected with 1 ml of PBS plus 1 mM EDTA. […] The slides were permeabilized with 0.5% Triton X-100 for 10 minutes, blocked with 10% normal goat serum (Abcam) for 30 minutes and stained with a monoclonal antibody against E. coli Elongation Factor-Tu (α-EF-Tu; cross reacts with B. cenocepacia) (LSBio) overnight to label B. cenocepacia. The samples were then stained with goat α-mouse IgG Alexa Fluor 488 (Abcam) for 1 h at RT, mounted with fluoroshield media with DAPI (Abcam), visualized via the Nikon Eclipse Ti at 40× magnification (Nikon Instrument Inc. Americas) and analyzed by ImageJ software (NIH). To enumerate bacterial burden, the animals were euthanized 18 or 72 hpi, bronchoalveolar lavage was collected with 1 ml of PBS plus 1 mM EDTA, an aliquot of BAL was serially diluted and plated on LB agar. […] Neither animals nor samples were excluded from evaluation in any study.

[10] = test system: eDNA lattice within K. pneumoniae biofilms; assay: Visualization of eDNA lattice structure within K. pneumoniae biofilms (immunofluorescence, CLSM); format: cell-based, Klebsiella pneumoniae; conditions: 24 h K. pneumoniae biofilms, 200 nM protein, 16 h
Description: Per the model as disclosed herein, HMGB1 would compete with DNABII proteins, wherein instead of stabilization, HMGB1 would de-stabilize these HJ-like structures and consequently disrupt the biofilm.

[11] = test system: HJ DNA; assay: Stabilization of HJ DNA at RT or 55° C, non-denaturing PAGE; format: binding; conditions: 32P HJ DNA, 25-500 nM protein, 10 min
Protocol: 5′ end-labeled ^32P HJ DNA was incubated with increasing concentrations (25-500 nM) of IHF (FIG. 8A), rHMGB1 (FIG. 8B) or RuvA (FIG. 8C) either at room temperature (RT) or at 55° C. for 10 min, then resolved on a 6% non-denaturing PAGE. Asterisk indicates melted oligos and arrows indicate DNA-protein complex. […] This outcome contrasts with that observed with both IHF and the prototypic HJ DNA binding protein, RuvA.
To test the hypothesis, HJ DNA was incubated with either HMGB1, the DNABII protein IHF, or the prototypic HJ DNA binding protein, RuvA at room temperature (RT) or 55° C. (melting temperature of HJ DNA) and resolved the complexes by non-denaturing polyacrylamide gel electrophoresis (PAGE). […] (FIG. 8) as indicated by the decrease in abundance of the shifted HJ DNA-HMGB1 complex (arrow) and the concomitant increase in the constituent melted oligos (asterisk).
Electrophoretic mobility shift assay (EMSA): EMSA was performed as previously described (Devaraj et al., 2019).

[12] = test system: neutrophils in BAL; assay: Inflammatory cell recruitment into lungs of B. cenocepacia-challenged mice (H&E, flow cytometry of BAL); format: in vivo, C57BL/6 mice; conditions: B. cenocepacia-infected and simultaneously treated, 0.2 nmol, 18 hpi
[13] = as above; format: in vivo, C57BL/6 mice; conditions: B. cenocepacia-challenged mice, 0.2 nmol, 72 hpi

B1: rHMGB1: recombinant HMGB1 derived from a human, expressed and purified in E. coli, SEQ ID NO: 51; comparator to mHMGB1 (protein, listed as Homo sapiens)
chain: MGKGDPKKPRGKMSSYAFFVQTCREEHKKKHPDASVNFSEFSKKCSERWKTMSAKEKGKFEDMAKADKARYEREMKTYIPPKGETKKKFKDPNAPKRPPSAFFLFCSEYRPKIKGEHPGLSIGDVAKKLGEMWNNTAADDKQPYEKKAAKLKEKYEKDIAAYRAKGKPDAAKKGVVKAEKSKKKKEEEEGEEDEEDEEEEEDEEDEDEEEDDDDE
Question: What does the source list for B1?
Answer: dose required to achieve a similar reduction in biofilm average thickness, S. aureus [1]: 800 nM; bacteria in the planktonic state [2]: statistically significant increase in the planktonic bacteria; biofilm-resident bacteria [2]: statistically significant decrease in biofilm-resident bacteria; serum TNF-α (septic shock) [3]: did not induce septic shock; also recorded: did not induce detectable TNF-α; induction of NET formation by neutrophils [4]: intertwined NETs specifically formed; also recorded: modest effect on induction of NETs; biofilm average thickness compared to control [5]: significantly disrupted bacterial biofilms; also recorded: significant reduction in biofilm average thickness; dose required to achieve a similar reduction in biofilm average thickness, E. faecium [6]: 800 nM; dose dependence of UPEC biofilm disruption [7]: dose-dependent disruption; also recorded: dose-dependent activity; IL-1β in middle ear fluids [8]: significantly elevated concentration; also recorded: statistically significant increase; IL-17A in middle ear fluids [8]: significantly elevated concentration; also recorded: statistically significant increase; B. cenocepacia stained within the lung tissue [9]: significantly reduced bacterial load; biofilm bacteria (FilmTracer FM 4-64) [10]: substantial reduction in biofilm bacteria; web-like eDNA lattice structure within biofilm [10]: disruption of the web-like structure; also recorded: notably disrupted; stabilization of HJ DNA at 55° C (melting temperature of HJ DNA) [11]: unstable at 55 °C; stabilization of HJ DNA at 55° C (melting temperature of HJ DNA) ([11]; listed as HMGB1): unable to efficiently stabilize the HJ DNA at 55 °C; HJ DNA-protein complex at room temperature (RT) [11]: stable at RT; HJ DNA-protein complex at room temperature (RT) ([11]; listed as HMGB1): bound to HJ DNA to form stable complexes at RT; neutrophils in BAL (flow cytometry) [12]: significantly greater number of neutrophils in BAL compared to the control; infiltration of inflammatory cells into lungs (H&E) [13]: significant infiltration of inflammatory cells
